Experimental data from patent publication US20240109955A1.

Legend:
Test in all cases: cell-based or functional assay
[1] = target: SARS-CoV-2 spike protein, Omicron variant BA.1 (SARS-CoV-2) (UniProt P0DTC2)
[2] = target: SARS-CoV-2 spike (S) protein, Mu variant (B.1.621) (SARS-CoV-2) (UniProt P0DTC2)
[3] = target: SARS-CoV-2 spike (S) protein, Iota variant (B.1.526) (SARS-CoV-2) (UniProt P0DTC2)
[4] = target: SARS-CoV-2 spike protein, Delta variant (B.1.617.2) (SARS-CoV-2)
[5] = target: SARS-CoV-2 spike (S) protein, C.1.2 variant (SARS-CoV-2) (UniProt P0DTC2)
[6] = target: SARS-CoV-2 spike protein, Omicron variant BA1.1.529 (SARS-CoV-2) (UniProt P0DTC2)
[7] = target: SARS-CoV-2 spike protein, Omicron variant BA.2.12.1 (SARS-CoV-2) (UniProt P0DTC2)
[8] = target: SARS-CoV-2 spike protein, Omicron variant BA.2 (SARS-CoV-2) (UniProt P0DTC2)
[9] = target: SARS-CoV-2 Omicron BA.4.6 spike protein (R346T, F486V) (SARS-CoV-2) (UniProt P0DTC2)
[10] = target: SARS-CoV-2 spike protein, Beta variant 1 (B.1.351.v1) (SARS-CoV-2)
[11] = target: SARS-CoV-2 spike (S) protein, Lambda variant (C.37) (SARS-CoV-2) (UniProt P0DTC2)
[12] = target: SARS-CoV-2 spike protein, Gamma variant (P.1) (SARS-CoV-2)
[13] = target: SARS-CoV-2 spike protein, Alpha variant (B.1.1.7) (SARS-CoV-2)
[14] = target: SARS-CoV-2 Omicron variant BA.2.75.2 spike protein (SARS-CoV-2)
[15] = target: SARS-CoV-2 spike protein, Omicron variant BA.4/5 (SARS-CoV-2)
[16] = target: SARS-CoV-2 Omicron variant BA.4/5 spike protein (SARS-CoV-2)
[17] = target: SARS-CoV-2 spike protein, Omicron variant BQ.1.1 (SARS-CoV-2)
[18] = target: SARS-CoV-2 Omicron variant BQ.1.1 spike protein (SARS-CoV-2)
[19] = target: SARS-CoV-2 spike protein, Omicron variant BA.2.75.2 (SARS-CoV-2)
[20] = target: SARS-CoV-2 spike (S) protein, Omicron sublineage BA.1.1 (R346K) (SARS-CoV-2) (UniProt P0DTC2)
[21] = target: SARS-CoV-2 Omicron variant XBB spike protein (SARS-CoV-2)
[22] = target: SARS-CoV-2 spike (S) protein, Omicron sublineage BQ 1.1 (R346T, K444T, F486V) (SARS-CoV-2) (UniProt P0DTC2)
[23] = target: SARS-CoV-2 spike (S) protein, Omicron sublineage BA.4.6 (R346T, F486V) (SARS-CoV-2) (UniProt P0DTC2)
[24] = target: SARS-CoV-2 spike (S) protein, Omicron sublineage BA.4.7 (R346S, F486V) (SARS-CoV-2) (UniProt P0DTC2)
[25] = target: SARS-CoV-2 spike (S) protein, Omicron sublineage BF.7 (R346T, F486V) (SARS-CoV-2) (UniProt P0DTC2)

A19-46 (antibody), sequence (VH): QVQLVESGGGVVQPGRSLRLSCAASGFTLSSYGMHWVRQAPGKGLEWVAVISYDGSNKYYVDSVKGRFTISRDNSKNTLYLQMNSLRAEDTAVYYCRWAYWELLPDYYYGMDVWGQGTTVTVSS
A19-46 (antibody), sequence (VL): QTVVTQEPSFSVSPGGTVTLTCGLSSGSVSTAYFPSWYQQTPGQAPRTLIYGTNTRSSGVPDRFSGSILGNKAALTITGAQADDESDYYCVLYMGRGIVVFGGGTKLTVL
A19-46.1 (antibody), sequence (VH): as the sequence (VH) above
A19-46.1 (antibody), sequence (VL): as the sequence (VL) above

Substance: A19-46.1 (antibody)
- IC50, pseudovirus neutralization [1]: 0.958 nM
- IC80, pseudovirus neutralization [1]: 2.28 nM
- pseudovirus neutralization IC50 (nM (inferred)) [2]: 1.34
- pseudovirus neutralization IC80 (nM (inferred)) [2]: 3.81
- pseudovirus neutralization IC50 (nM (inferred)) [3]: 0.803
- pseudovirus neutralization IC80 (nM (inferred)) [3]: 1.88
- IC50, pseudovirus neutralization [4]: > 66.7 nM
- IC80, pseudovirus neutralization [4]: > 66.7 nM
- pseudovirus neutralization IC50 (nM (inferred)) [5]: 11.6
- pseudovirus neutralization IC80 (nM (inferred)) [5]: 21
- IC50, pseudovirus neutralization [6]: 1.84 nM
- IC80, pseudovirus neutralization [6]: 2.84 nM
- IC50, pseudovirus neutralization [7]: > 66.7 nM
- IC80, pseudovirus neutralization [7]: > 66.7 nM
- IC50, pseudovirus neutralization [8]: 0.69 nM
- IC80, pseudovirus neutralization [8]: 2.23 nM
- IC50, pseudovirus neutralization [9]: > 10000 nM
- IC80, pseudovirus neutralization [9]: > 10000 nM
- IC50, pseudovirus neutralization [10]: 0.807 nM
- IC80, pseudovirus neutralization [10]: 2.07 nM
- pseudovirus neutralization IC50 (nM (inferred)) [11]: > 66.7
- pseudovirus neutralization IC80 (nM (inferred)) [11]: > 66.7
- IC50, pseudovirus neutralization [12]: 0.26 nM
- IC80, pseudovirus neutralization [12]: 0.7 nM
- IC50, pseudovirus neutralization [13]: 0.19 nM
- IC80, pseudovirus neutralization [13]: 0.486 nM

Substance: A19-46 (antibody)
- IC50, pseudovirus neutralization [14]: > 10 µg/mL
- IC80, pseudovirus neutralization [14]: > 10 µg/mL
- IC50, pseudovirus neutralization [15]: > 10 µg/mL
- IC80, pseudovirus neutralization [15]: > 10 µg/mL
- IC50, pseudovirus neutralization [16]: > 10 µg/mL
- IC80, pseudovirus neutralization [16]: > 10 µg/mL
- IC50, pseudovirus neutralization [17]: 0.386 µg/mL
- IC80, pseudovirus neutralization [17]: 1.11 µg/mL
- IC50, pseudovirus neutralization [18]: 0.386 µg/mL
- IC80, pseudovirus neutralization [18]: 1.11 µg/mL
- IC50, pseudovirus neutralization [19]: > 10 µg/mL
- IC80, pseudovirus neutralization [19]: > 10 µg/mL

Substance: bebtelovimab (LY1404) (antibody)
- IC50, pseudovirus neutralization [20]: 26.4 nM
- IC80, pseudovirus neutralization [20]: 65.1 nM
- IC50, pseudovirus neutralization [21]: > 10 µg/mL
- IC80, pseudovirus neutralization [21]: > 10 µg/mL
- IC50, pseudovirus neutralization [14]: 0.00567 µg/mL
- IC80, pseudovirus neutralization [14]: 0.0207 µg/mL
- IC50, pseudovirus neutralization [22]: > 10000 nM
- IC80, pseudovirus neutralization [22]: > 10000 nM
- IC50, pseudovirus neutralization [23]: 22.3 nM
- IC80, pseudovirus neutralization [23]: 25.4 nM
- IC50, pseudovirus neutralization [24]: 5.9 nM
- IC80, pseudovirus neutralization [24]: 16.1 nM
- IC50, pseudovirus neutralization [25]: 16.9 nM
- IC80, pseudovirus neutralization [25]: 25.2 nM
- IC50, pseudovirus neutralization [18]: > 10 µg/mL
- IC80, pseudovirus neutralization [18]: > 10 µg/mL
